Molecular target: T1, Recombinant Ubiquitin activating enzyme E1 (human) - UBA1 (human, UniProt P22314 1-1058)
T1 sequence: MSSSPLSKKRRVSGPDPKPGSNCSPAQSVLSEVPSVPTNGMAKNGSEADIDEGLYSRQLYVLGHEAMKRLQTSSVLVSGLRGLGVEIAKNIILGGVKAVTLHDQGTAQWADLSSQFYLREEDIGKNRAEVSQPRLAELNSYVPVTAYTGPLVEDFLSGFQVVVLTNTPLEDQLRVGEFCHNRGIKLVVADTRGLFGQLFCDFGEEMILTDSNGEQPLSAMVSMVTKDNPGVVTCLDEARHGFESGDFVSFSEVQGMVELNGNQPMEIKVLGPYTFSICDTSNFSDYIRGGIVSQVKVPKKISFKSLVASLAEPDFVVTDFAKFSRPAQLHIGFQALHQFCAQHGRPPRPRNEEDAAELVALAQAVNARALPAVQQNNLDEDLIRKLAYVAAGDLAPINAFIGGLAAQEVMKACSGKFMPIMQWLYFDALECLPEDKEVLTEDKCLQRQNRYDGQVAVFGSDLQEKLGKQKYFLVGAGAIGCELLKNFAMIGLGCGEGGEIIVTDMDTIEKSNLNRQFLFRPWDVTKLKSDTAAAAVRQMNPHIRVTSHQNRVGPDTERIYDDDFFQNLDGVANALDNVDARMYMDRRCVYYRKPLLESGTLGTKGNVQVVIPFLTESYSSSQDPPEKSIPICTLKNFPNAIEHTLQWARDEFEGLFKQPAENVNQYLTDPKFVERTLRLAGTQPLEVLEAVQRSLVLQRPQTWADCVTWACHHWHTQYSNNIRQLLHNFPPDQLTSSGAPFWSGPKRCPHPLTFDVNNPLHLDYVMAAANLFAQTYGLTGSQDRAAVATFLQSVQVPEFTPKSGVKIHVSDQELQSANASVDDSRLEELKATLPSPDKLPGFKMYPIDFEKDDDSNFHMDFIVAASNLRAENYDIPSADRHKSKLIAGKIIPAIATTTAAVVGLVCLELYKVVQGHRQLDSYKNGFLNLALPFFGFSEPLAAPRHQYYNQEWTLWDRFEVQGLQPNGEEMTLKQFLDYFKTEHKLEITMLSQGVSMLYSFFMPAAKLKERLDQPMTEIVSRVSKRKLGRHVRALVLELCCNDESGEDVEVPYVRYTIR
Assay: in vitro oxidation and non-reducing immunoblot of a disulfide-linked complex

B1: recombinant Rad6 (enzyme)
chain: MSTPARRRLMRDFKRMKEDAPPGVSASPLPDNVMVWNAMIIGPADTPYEDGTFRLLLEFDEEYPNKPPHVKFLSEMFHPNVYANGEICLDILQNRWTPTYDVASILTSIQSLFNDPNPASPANVEAATLFKDHKSQYVKRVKETVEKSWEDDMDDMDDDDDDDDDDDDDEAD
  binding result: binds
